Measured values as given in article PMC12126490, “The HP1 box of KAP1 organizes HP1α for silencing of endogenous retroviral elements in embryonic stem cells” (Nature Communications, 2025).

Legend:
[1] = tested on: endogenous HP1α in KAP1^−/− ESCs; experiment: immunofluorescence of endogenous HP1α; format: cell-based; conditions: KAP1^−/− mouse ESCs stably expressing the GFP-labeled construct, anti-HP1α antibody, DAPI
Description: The constructs coding for GFP-KAP1RF and the P486A/V488A/L490A mutant were transfected into 1 ×10^5 KAP1^−/− mouse ESCs using Lipofectamine 3000 (Invitrogen). Forty-eight hours post-transfection, cells were trypsinized and plated at a colony density in selection medium containing 10 μg/ml blasticidin (Thermo Fisher Sci) for one week. The selection process was repeated once to establish stable GFP-KAP1 expressing cell lines.
For immunostaining, mouse ESCs were cultured on Geltrex-coated coverslips (Life Technologies) in DMEM supplemented with 16% fetal bovine serum, 0.1 mM β-mercaptoethanol (Invitrogen), 2 mM L-glutamine, 1× MEM non-essential amino acids, 100 U/ml penicillin, 100 µg/ml streptomycin (PAA), 2i (1 μM PD032591 and 3 μM CHIR99021 (Axon Medchem, Netherlands) and 1000 U/ml recombinant LIF (Millipore). Coverslips were rinsed twice with PBS (pH 7.4; 140 mM NaCl, 2.7 mM KCl, 6.5 mM Na2HPO4, 1.5 mM KH2PO4), followed by fixation with 3.7% formaldehyde (Sigma) for 10 min. Fixed cells were washed three times (10 min each) with PBST (PBS + 0.01% Tween-20), permeabilized in 0.5% Triton X-100 for 10 min, and washed twice (10 min each) with PBST. Primary and secondary antibodies were prepared in blocking solution (PBST + 3% BSA). […]

[2] = tested on: DNA-induced HP1α phase separated droplets; experiment: in vitro droplet assay; conditions: 50 µM HP1α, 0.18 µM 601 DNA
Excerpt: For droplet assays, cDNA of full-length HP1α was cloned into a pET28 expression vector. His-tag fusion HP1α was expressed in E. coli and purified as in ref. [51]. cDNA of the KAP1FR fragment (aa 114–834) was cloned into a pCAG-GFP expression vector, and the P486A/V488A/L490A mutant of GFP-KAP1FR was generated using overlap extension PCR. Purification of GFP-KAP1FR proteins was described in ref. [52].
For the droplet assay, Widom 601 DNA was amplified by PCR using a plasmid coding for 12× 601 DNA with primers as follows: 601 DNA_F: […] and 601 DNA_R: TGCACAGGATGTATATATCTGACAC. HP1α was concentrated to ~10 µg/µl using Amicon concentrators. The buffer changes for both HP1α and GFP-KAP1FR solutions were carried out using Zeba™ Spin Desalting Columns with a buffer containing 20 mM HEPES at pH 7.2, 75 mM KCl, and 1 mM DTT. For visualization of His-tagged-HP1α within the droplets, 500 ng of protein was labeled with the 647 N fluorescent label using the Monolith NT™ Protein Labeling Kit RED-NHS from Nano Temper. To form HP1α droplets, 50 µM of HP1α was incubated with 0.18 µM of 601 DNA for 3 min and dropped into ibidi chamber (µ-Slide 18 Well). Subsequently, 50 ng of the labeled HP1α and 100 ng of GFP-KAP1FR (wild type or mutant) were added into HP1α/DNA droplets. The images of the droplets were collected using a Nikon TiE microscope equipped with a Yokogawa CSU-W1 spinning-disk confocal unit (50 μm pinhole size), an Andor Borealis illumination unit, Andor ALC600 laser beam combiner (405 nm/488 nm/561 nm/640 nm), Andor IXON 888 Ultra EMCCD camera, and a Nikon 100×/1.45 NA oil immersion objective. The size and intensity of HP1α phase-separated droplets were analyzed using ImageJ.

[3] = tested on: dsRed-HP1α in E14 ESC cells; experiment: heterochromatin half-FRAP (MOCHA-FRAP); format: cell-based, mouse; conditions: bleached and non-bleached half of heterochromatin compartment, living ESCs
Description: E14 ESC cells were transfected with 3 µg of pdsRed-HP1α and either pGFP or pGFP-KAP1FR using AMAXA nucleofector (Lonza), seeded in slide chambers containing high precision glass overnight at 37 °C and 5% CO2. Samples were analyzed using a Leica SP5-II confocal point scanner microscope equipped with 488 nm Argon ion and 561 nm DPSS 50 mW lasers, a AOBS beams splitter and a HyD Hybrid detector. Cells were first scanned for GFP^+ using a HCX PL APO 100x Corr CS objective, and a section of 64 × 64 pixels with 0.8-0.6 µm/px size containing one heterochromatin compartment of these cells was selected. Subsequently, a point region of interest was used to bleach the half of the heterochromatin compartment for 100 ms at maximum intensity of the laser (488 and 561 nm). The recovery was documented for 15 s with a frame rate of approximately 100 ms/frame. MOCHA-FRAP analysis was performed as in ref. [36].

B1: GFP-KAP1FR: GFP labeled KAP1 fragment (aa 114–834 of KAP1) (protein)
chain: VVDCPVCKQQCFSKDIVENYFMRDSGSKAATDAQDANQCCTSCEDNAPATSYCVECSEPLCETCVEAHQRVKYTKDHTVRSTGPAKSRDGERTVYCNVHKHEPLVLFCESCDTLTCRDCQLNAHKDHQYQFLEDAVRNQRKLLASLVKRLGDKHATLQKSTKEVRSSIRQVSDVQKRVQVDVKMAILQIMKELNKRGRVLVNDAQKVTEGQQERLERQHWTMTKIQKHQEHILRFASWALESDNNTALLLSKKLIYFQLHRALKMIVDPVEPHGEMKFQWDLNAWTKSAEAFGKIVAERPGTNSTGPAPMAPPRAPGPLSKQGSGSSQPMEVQEGYGFGSGDDPYSSAEPHVSGVKRSRSGEGEVSGLMRKVPRVSLERLDLDLTADSQPPVFKVFPGSTTEDYNLIVIERGAAAAATGQPGTAPAGTPGAPPLAGMAIVKEEETEAAIGAPPTATEGPETKPVLMALAEGPGAEGPRLASPSGSTSSGLEVVAPEGTSAPGGGPGTLDDSATICRVCQKPGDLVMCNQCEFCFHLDCHLPALQDVPGEEWSCSLCHVLPDLKEEDGSLSLDGADSTGVVAKLSPANQRKCERVLLALFCHEPCRPLHQLATDSTFSLDQPGGTLDLTLIRARLQEKLSPPYSSPQEFAQDVGRMFKQFNKLTEDKADVQSIIGLQRFFETRMNEAFGDTKFSAVLVEPPPMSLPGAGLSSQELSGGPGDG
modifications: left off: GFP, end not stated, kept
- distribution of endogenous HP1α (puncta) [1]: Endogenous HP1α formed large puncta and colocalized with GFP-KAP1FR
- sequestration of 647N labeled HP1α into droplets ([2]; 20 mM HEPES pH 7.2, 75 mM KCl, 1 mM DTT, 100 ng GFP-KAP1FR, 50 ng labeled HP1α): sequestered HP1a into the interior of droplets within a minute
- localization of GFP-KAP1FR in droplets ([2]; confocal microscopy): concentrated at the periphery of the droplets
- fluorescence recovery of HP1α [3]: neither the bleached half (thin purple line) nor the non-bleached half (thick purple line) fully recovered their fluorescence
